T1: siglec 10 expressed on HEK293 cells (UniProt Q96LC7 17-697, limits assumed)
T1 construct: whole, on cells; also called Siglec-6 family member
T1 sequence (looked up): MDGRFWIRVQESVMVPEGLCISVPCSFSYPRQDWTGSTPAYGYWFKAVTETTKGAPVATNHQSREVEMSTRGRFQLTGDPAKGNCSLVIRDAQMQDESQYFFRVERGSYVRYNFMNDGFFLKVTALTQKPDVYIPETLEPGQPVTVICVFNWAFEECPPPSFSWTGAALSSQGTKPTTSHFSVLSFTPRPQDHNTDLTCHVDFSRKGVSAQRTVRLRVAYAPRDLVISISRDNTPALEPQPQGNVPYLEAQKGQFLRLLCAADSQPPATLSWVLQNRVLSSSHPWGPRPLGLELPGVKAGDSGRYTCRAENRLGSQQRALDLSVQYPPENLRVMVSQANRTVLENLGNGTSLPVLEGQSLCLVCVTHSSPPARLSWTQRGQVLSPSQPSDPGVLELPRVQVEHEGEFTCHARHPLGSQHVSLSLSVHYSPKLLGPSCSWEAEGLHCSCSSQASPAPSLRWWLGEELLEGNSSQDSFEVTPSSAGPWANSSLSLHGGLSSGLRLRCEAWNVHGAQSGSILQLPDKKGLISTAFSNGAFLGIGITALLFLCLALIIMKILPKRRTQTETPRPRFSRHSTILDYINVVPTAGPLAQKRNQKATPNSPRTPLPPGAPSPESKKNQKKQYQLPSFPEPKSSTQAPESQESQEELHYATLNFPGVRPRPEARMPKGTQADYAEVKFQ

T2: siglec 14 expressed on HEK293 cells (UniProt Q08ET2 17-396, limits assumed)
T2 construct: whole, on cells; also called Siglec-6 family member
T2 sequence (looked up): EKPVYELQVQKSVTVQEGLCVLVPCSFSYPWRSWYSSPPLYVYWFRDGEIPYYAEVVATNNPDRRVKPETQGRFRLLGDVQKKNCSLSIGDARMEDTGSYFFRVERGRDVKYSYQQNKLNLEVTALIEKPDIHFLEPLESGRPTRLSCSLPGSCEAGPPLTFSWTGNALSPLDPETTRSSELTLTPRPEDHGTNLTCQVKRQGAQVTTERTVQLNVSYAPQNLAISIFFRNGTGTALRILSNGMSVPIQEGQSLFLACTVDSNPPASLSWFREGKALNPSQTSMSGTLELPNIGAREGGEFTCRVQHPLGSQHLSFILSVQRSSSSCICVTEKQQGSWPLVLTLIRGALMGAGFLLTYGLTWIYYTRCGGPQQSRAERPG

T3: siglec 2 expressed on HEK293 cells (UniProt P20273 20-847, limits assumed)
T3 construct: whole, on cells; also called Siglec-6 family member
T3 sequence (looked up): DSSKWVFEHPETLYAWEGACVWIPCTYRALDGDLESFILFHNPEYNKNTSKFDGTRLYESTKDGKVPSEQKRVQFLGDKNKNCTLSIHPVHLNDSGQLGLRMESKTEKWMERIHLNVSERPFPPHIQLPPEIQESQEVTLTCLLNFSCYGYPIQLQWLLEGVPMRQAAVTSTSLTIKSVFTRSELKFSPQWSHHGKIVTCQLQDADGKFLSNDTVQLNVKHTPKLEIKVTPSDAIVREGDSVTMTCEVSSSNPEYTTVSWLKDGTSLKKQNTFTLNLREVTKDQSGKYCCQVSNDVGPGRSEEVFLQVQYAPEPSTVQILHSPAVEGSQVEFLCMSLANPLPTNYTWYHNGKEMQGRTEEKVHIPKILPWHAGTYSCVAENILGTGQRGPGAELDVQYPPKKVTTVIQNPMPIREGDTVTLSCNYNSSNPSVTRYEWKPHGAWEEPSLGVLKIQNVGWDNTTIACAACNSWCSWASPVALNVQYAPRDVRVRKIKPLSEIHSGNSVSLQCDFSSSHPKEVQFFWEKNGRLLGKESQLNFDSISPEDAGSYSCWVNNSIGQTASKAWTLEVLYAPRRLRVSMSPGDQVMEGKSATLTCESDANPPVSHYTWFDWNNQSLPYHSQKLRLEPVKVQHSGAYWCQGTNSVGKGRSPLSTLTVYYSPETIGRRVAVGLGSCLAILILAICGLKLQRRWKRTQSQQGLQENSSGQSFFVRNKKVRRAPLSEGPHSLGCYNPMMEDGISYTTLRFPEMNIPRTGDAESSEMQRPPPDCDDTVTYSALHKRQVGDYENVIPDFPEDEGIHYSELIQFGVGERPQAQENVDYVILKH


Tests used:
Assay in all cases: flow cytometry on HEK293 cells expressing the target
[1] = biological target: T4, siglec 7 expressed on HEK293 cells (UniProt Q9Y286 19-467, limits assumed)
T4 construct: whole, on cells; also called Siglec-6 family member
T4 sequence (Q9Y286 19-467 limits assumed): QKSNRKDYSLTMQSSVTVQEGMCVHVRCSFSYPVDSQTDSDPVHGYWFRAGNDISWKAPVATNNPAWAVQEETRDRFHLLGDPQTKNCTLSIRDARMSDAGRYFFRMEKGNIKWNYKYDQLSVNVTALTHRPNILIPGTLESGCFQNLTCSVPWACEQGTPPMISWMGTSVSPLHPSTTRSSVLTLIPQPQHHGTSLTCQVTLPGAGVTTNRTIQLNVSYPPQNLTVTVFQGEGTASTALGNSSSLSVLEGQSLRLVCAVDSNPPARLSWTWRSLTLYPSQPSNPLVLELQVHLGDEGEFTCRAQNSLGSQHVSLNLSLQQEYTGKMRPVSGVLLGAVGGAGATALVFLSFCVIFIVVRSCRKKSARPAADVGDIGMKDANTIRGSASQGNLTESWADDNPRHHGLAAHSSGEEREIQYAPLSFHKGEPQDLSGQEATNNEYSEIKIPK
Experimental: (§1) Cultured HEK293 cells expressing human siglec-6, cynomolgus siglec-6, or siglec 6 family members were resuspended in FACS Blocking Buffer (PBS+10% normal human serum) for 30 minutes. Following washing, cells were incubated with siglec-6 antibodies in FACS Buffer (PBS+0.5% bovine serum albumin+0.09% sodium azide) and incubated at 4° C. for 30 minutes, washed and incubated with PE-labeled anti-human secondary antibody. Cells were incubated at 4° C. for 30 minutes in the dark. Following washing, cytofluorimetric analysis was conducted using a BD FACS Symphony A3 (BD Biosciences). Cells were sorted by scatter properties and separated for single cell analysis using side scatter width vs side scatter area. Antibody binding to cells was quantitated by measuring fluorescent emissions of excitation wavelength of 561 nm using a 586/15 nm filter. Data analysis was performed using FlowJo Software.

[2] = biological target: T1, siglec 10 expressed on HEK293 cells
Experimental: as §1

[3] = biological target: T2, siglec 14 expressed on HEK293 cells
Experimental: as §1

[4] = biological target: T5, siglec 8 expressed on HEK293 cells (UniProt Q9NYZ4 17-499, limits assumed)
T5 construct: whole, on cells; also called Siglec-6 family member
T5 sequence (Q9NYZ4 17-499 limits assumed): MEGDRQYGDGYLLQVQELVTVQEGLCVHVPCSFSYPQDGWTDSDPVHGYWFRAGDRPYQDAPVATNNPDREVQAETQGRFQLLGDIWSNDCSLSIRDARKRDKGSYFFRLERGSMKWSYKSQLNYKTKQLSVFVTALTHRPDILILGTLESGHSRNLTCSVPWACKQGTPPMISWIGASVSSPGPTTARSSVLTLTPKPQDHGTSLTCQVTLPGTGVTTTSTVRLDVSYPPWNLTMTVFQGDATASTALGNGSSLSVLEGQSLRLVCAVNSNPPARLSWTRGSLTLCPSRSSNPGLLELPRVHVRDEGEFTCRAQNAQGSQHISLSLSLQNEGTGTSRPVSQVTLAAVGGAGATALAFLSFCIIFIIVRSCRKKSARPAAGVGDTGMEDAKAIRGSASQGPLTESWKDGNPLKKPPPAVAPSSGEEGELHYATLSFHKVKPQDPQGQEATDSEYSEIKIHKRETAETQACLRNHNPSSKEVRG
Experimental: as §1

[5] = biological target: T3, siglec 2 expressed on HEK293 cells
Experimental: as §1

| binding result [1] | binding result [2] | binding result [3] | binding result [4] | binding result [5] | Binder |
| --- | --- | --- | --- | --- | --- |
| no binding | no binding | no binding | no binding | no binding | hRND-3 (antibody, human IgG1, kappa, V domains shown, also called humanized RND-3; hRND-H3 / hRND-L3; copies: 2 + 2) VH: QVQLVQSGAEVKKPGASVKLSCKASGYAFTSYWMHWVRQAPGQRLEWIGEIYPTNGGTTYAQKFQGRATLTVDKSTSTAYMELSRLRSDDTAVYYCTIEDFYAMDYWGQGTTVTVSS VL: DIVMTQTPLSLSVTPGQPASISCKSSQSLLDSDGKTSLNWLLQKPGQSPQRLIYLVSKLDSGVPDRFSGSGSGTDFTLKISRVEAEDVGVYYCWQGTHFPYTFGQGTKLEIKR |
| no binding | no binding | no binding | no binding | no binding | hRND-5 (antibody, human IgG1, kappa, V domains shown, also called humanized RND-5; hRND-H3b / hRND-L3; copies: 2 + 2) VH: QVQLVQSGAEVKKPGASVKLSCKASGYAFTSYWMHWVRQAPGQRLEWIGEIYPTNGGTTYNEKFKRRATLTVDKSTSTAYMELSRLRSDDTAVYYCTIEDFYAMDYWGQGTTVTVSS VL: DIVMTQTPLSLSVTPGQPASISCKSSQSLLDSDGKTSLNWLLQKPGQSPQRLIYLVSKLDSGVPDRFSGSGSGTDFTLKISRVEAEDVGVYYCWQGTHFPYTFGQGTKLEIKR |

The remaining lines, values behind:

| Binder | binding result [1] | binding result [2] | binding result [3] | binding result [4] | binding result [5] |
| --- | --- | --- | --- | --- | --- |
| hRND-2 (antibody, human IgG1, kappa, V domains shown, also called humanized RND-2; hRND-H2 / hRND-L3; copies: 2 + 2) VH: QVQLVQSGAEVKKPGASVKVSCKASGYAFTSYWMHWVRQAPGQRLEWMGEIYPTNGGTTYAQKFQGRVTMTVDKSTSTAYMELSRLRSDDTAVYYCTIEDFYAMDYWGQGTTVTVSS VL: DIVMTQTPLSLSVTPGQPASISCKSSQSLLDSDGKTSLNWLLQKPGQSPQRLIYLVSKLDSGVPDRFSGSGSGTDFTLKISRVEAEDVGVYYCWQGTHFPYTFGQGTKLEIKR | no binding | no binding | no binding | no binding | no binding |
| hRND-4 (antibody, human IgG1, kappa, V domains shown, also called humanized RND-4; hRND-H2b / hRND-L3; copies: 2 + 2) VH: QVQLVQSGAEVKKPGASVKVSCKASGYAFTSYWMHWVRQAPGQRLEWMGEIYPTNGGTTYNEKFKRRVTMTVDKSTSTAYMELSRLRSDDTAVYYCTIEDFYAMDYWGQGTTVTVSS VL: DIVMTQTPLSLSVTPGQPASISCKSSQSLLDSDGKTSLNWLLQKPGQSPQRLIYLVSKLDSGVPDRFSGSGSGTDFTLKISRVEAEDVGVYYCWQGTHFPYTFGQGTKLEIKR | no binding | no binding | no binding | no binding | no binding |
